One assay addresses SARS-CoV-2 NTD (SARS-CoV-2, UniProt P0DTC2 14-305).
The target of another assay is SARS-CoV-2 RBD (SARS-CoV-2, UniProt P0DTC2 319-541).

As a reminder, the Kd is the free concentration of one partner at which half of the binding sites on the other are occupied at equilibrium, for simple one-to-one binding. A high value points to lower affinity.

B1: 53181-1 (antibody, V domains shown)
VH: QVQLVQSGAEVKKPGASVKVSCKASGYTFTNYVLTWVRQAPGQGLEWMGWISAYNGSTNYAQNLQGRVTMTTDTSTSTAYMELRSLRSDDTAVYYCARDPASYYDFWSGYVDYYYYGMDVWGQGTTVTVSS
VL: ELVLTQSPGTLSLSPGERATLSCRASQSVSSSYLAWYQQKPGQAPRLLIYSASSRATGIPDRFSGSGSGTDFTLTISRLEPEDFAVYYCQQYGNSRLTFGPGTKVDIK
In the case of B1, in the assay with SARS-CoV-2 NTD, the affinity, expressed as Kd, was 1.17 nM. This counts as single-digit nanomolar.

B2: 53181-2 (antibody, V domains shown)
VH: QVQLVQSGAEVKKPGASVKVSCKASGYTFTSYSINWVRQAPGQGLEWMGWISAYNGSTNYAQKLQGRVTMTTDTSTSTAYMELRSLRSDDTAVYYCARDPASYYDLWSGYVDYYYYGMDVWGQGTTVTVSS
VL: EIVLTQSPGTLSLSPGERATLSCRASQSVSSSYLAWYQQKPGQAPRLLIYGASSRATGIPDRFSGSGSGTDFTLTISRLEPEDFAVYYCHHYGSSRLTFGPGTKVDIK
Take B2: in the assay with SARS-CoV-2 NTD, the Kd turned out to be 31.3 nM.

B3: antibody 5317-4 (antibody, V domains shown)
VH: QVQLRLWGAGLLKPSETLSLTCAVSGGSFIDYYWTWIRQPPGKGLEWIGEINHFGGSGYNPSLKSRVSISVDTSKNQFSLRLNSVTAADTAIYYCARKPLLHSSVNPGAFDIWGQGTMLTVSS
VL: EIVLTQSPGTLSLSPGERAALSCRASQSVAGTYLAWYQQKPGQAPRLLIYGASSRATGIPDRFSGSGSGTDFTLTISRLEPEDFAVYYCQQYATSPRTFGQGTQLEIR
B3 came in with a dissociation constant Kd with SARS-CoV-2 RBD of 1.78 nM.

B4: 53182-8 (antibody, V domains shown)
VH: QLQLQESGPGLVKPSETLSLTCTVSGGSISSSSYYWGWIRQPPGKGLEWIGTIYYSGSTYYNPSLKSRVTISVDTSKTQFSLKLSSVTAADTAVYYCARDRRGGGWTASFDFWGQGTLVTVSS
VL: not shown
B4 returned an equilibrium dissociation constant (Kd) in the assay with SARS-CoV-2 RBD of 16.5 nM.

B5: 53182-3 (antibody, V domains shown)
VH: EVHLVESGGGLVQPGGSLRLSCAASGFTVSSNYMSWVRQAPGKGLEWVSVIYSGGNTYYADSVKGRFTISRDNSKNTLYLQMNSLRAEDTAVYYCARDRRIIGYYFGMDVWGRGTTVTVSS
VL: QSALTQPASVSGSPGQSITISCTGTSSYVGSFDLVSWYQQHPGKAPKLMIYEVSKRPSGVSNRFSGSKSGNTASLTISGLQAEDEADYYCCPYADTWVFGGGTKLTVL
B5: in the assay with SARS-CoV-2 RBD, the dissociation constant (Kd) came out at 8.32 nM.

B6: 53182-6 (antibody, V domains shown)
VH: EVQLVESGGGLVQPGGSLRLSCAASGFTVSDNYMSWVRQAPGKGLQWVSVIYSGGNTYYADFVKGRFNITRDDSKNMLYLQMNSLRREDTAVYYCVRDRRIVGYYFGLDVWGQGTTVTVFS
VL: QSALTQPASVSGSPGQSITISCTGTSSDVRNYNLVSWYQQHPGKAPKLMIFEDSKRPSGVSNRFSGSKSGNTASLTIAGLQPEDEADYYCCSYATTWVFGGGTKVTVL
In turn, B6 yielded a Kd in the assay with SARS-CoV-2 RBD of 0.935 nM. This Kd is about 8.9-fold lower than that of the molecule before.

B7: 5317-2 (antibody, V domains shown)
VH: QVQLVQSGAEVKKPGSSVKVSCKVSGGTFSSYTIIWVRQAPGQGLEWMGRVIPVVHITHYAQRFRGRVTISADKSTSTAYMELSSLRSEDTAVYYCARGLWFGDSETVWFDPWGQGTLVTVSS
VL: DIQMTQSPSSLSASVGDRVTITCRASQNITYYLNWYQQKPGKAPNLLIYTASSLQSGVPSRFIGSGSGTDFTLTISSLQPEDFATYCCQQSYSTPPTFGQGTKVEIR
Take B7: the affinity in the assay with SARS-CoV-2 RBD, expressed as Kd, was 1.95 nM.

B8: 53182-4 (antibody, V domains shown)
VH: QITLEESGPTLVTPTQTLTLTCSFSGFSLDTIGVAVAWIRQPPGKALEWLGTVFWDYDKRYSPPLSSRLTVIKDTSQQYVVLRLTDVGPGDTATYYCARLLIEHDAFDIWGQGAVVIVSS
VL: DVVVTQSPVSLPATPGEPASISCRASQSLLHRNGKHYLHWYLQRPGQSPQLLIYLGSNRASGVPDRFSGSGSGTVFSLKISRVEAEDVGIYYCMQALHFPYTFGQGTKLDIK
B8: the dissociation constant Kd with SARS-CoV-2 NTD turned out to be 2.28 nM.

B9: 5317-1 (antibody, V domains shown)
VH: QMQLVQSGPEVKKPGTSVKVSCKASGFTFSTSVVQWVRQPRGQRLEWIGGIVVGRGNTKYAQNFQERVTITRDMSTSTAYMELSNLRSEDTAVYYCAADPFADYWGQGTLVTVSS
VL: not shown
The molecule B9 displayed a Kd with SARS-CoV-2 RBD of 0.0434 nM.

B10: 5317-5 (antibody, V domains shown)
VH: QVQLVQSGAEVKKPGSSVKVSCKASGGTFSSYPITWVRQAPGQGFEWMGKIIPILGIADYAQSFQGRVTITADKSTTTAYMELSSLRSEDTAVYYCAREKGYSSSSSATYYLDFWGQGTLVTVSS
VL: QSVLTQPPSVSGAPGQRVTISCTGSNSNIGAGYDVHWYQQLPGTAPRLLIYRNSNRPSGVPDRFSGSKSGTAASLAISGLQAEDEADYYCQSYDSSLTALVFGGGTKLTVL
B10 yielded a Kd with SARS-CoV-2 RBD of 0.0826 nM.

B11: 5317-6 (antibody, V domains shown)
VH: QLQLQESGPGLVKPSETLSLTCTVSGASISSSSYYWGWIRQPPGKGLEWIGTMYYRGSTDYNPSLKSRVTISVDTSKNQFSLRLSSVTAADTAVYYCARRVPGDYYCLDVWGKGTTVTVSS
VL: DIQLTQSPSSLSASVGDRVTVTCRASQSISDYLNWYQQKPGKAPKLLIYAASSLQTGVPPRFSGSGSGTDFTLTISSLQPEDFATYYCQQSFSARVPTFGGGTKVESK
For B11, in the assay with SARS-CoV-2 RBD, the Kd stood at 1.66 nM.

B12: 53182-11 (antibody, V domains shown)
VH: EVQLVEFGGGLVQPGRSLRLSCATSGFTFEDFDMHWVRQAPGKGLEWVSGSTWNSGIIGYADSVKGRFTTSRDNAKNSLYMQMNNLREEDTALYYCAKDIGRYDHYNIFGRVGGAFDIWGQGTMVTVSS
VL: DIQMTQSPSSLSASVGDRVTISCQTSQDISVSLNWYQQKPGKPPKVLIYDASNLEAGAPSRFSGSGSGTDFTFTISSLQPEDIATYYCQHYDNLPRFGPGTKVDIK
In turn, B12 came in with a Kd in the assay with SARS-CoV-2 RBD of 3.18 nM.

B13: 53182-9 (antibody, V domains shown)
VH: EVQLVESGGGLILPGGSLRLSCAASGVTVSSNYMNWVRQAPGKGLEWVSVIYSGGSTFYADSVKGRFTISRDNSKNTLYLQMNSLRAEDTAVYYCARGGWPSGDTFDIWGQGTMVTVSS
VL: DIQLTQSPSFLSASVGDRVTITCRASQGISSYLAWYQQKPGKAPKLLIYAASTLQSGVPSRFSGSGSGTEFTLTISSLQPEDFATYYCQQLNSYPEITFGPGTKVDIK
In the assay with SARS-CoV-2 RBD, B13 had a Kd of 0.0475 nM.

B14: 53182-1 (antibody, V domains shown)
VH: EVQLVESGGGLIQPGGSLRLSCTASGITVSTNYMTWVRQAPGKGLEWVSIIYSGGSTYYADSVKGRFTISRDNSKNTLYLQMNSLRADDTAVYYCTRGGWPSGDTFDIWGLGTMVTVSS
VL: DIQLTQSPSFLSASVGDRVTITCRASQGISSYLAWYQQKPGKAPKLLIYGASTLQSGVPSRFSGSGSGTEFTLTISSLQPEDFATYYCQQLNSYPEITFGPGTKVDIK
B14 yielded a Kd with SARS-CoV-2 RBD of 2.81 nM.

B15: 5317-7 (antibody, V domains shown)
VH: EVQLVGSGGGLVQPGGSLRLSCAASGFTFSTYWMSWVRQAPGKGLEWVADIKQDGSEKYYVDSVKGRFTISRDNAKNSLYLQMNSLRVEDTALYYCARGGLWGTFDYWGQGTLVTVSS
VL: EIVLTQSPGTLSLSPGERASLSCRASQSVSSSYLAWYQQKPGQAPRLLIYGASSRATGIPDRFSGSGSGTDFTLTISRLEPEDFAVYWCQQFAYSLYTFGQGTKLEIK
Consider B15, for which the affinity with SARS-CoV-2 RBD, expressed as Kd, was 10.5 nM.

B16: 5317-3 (antibody, V domains shown)
VH: EVQLVESGGGLVQPGGSLRLSCSASGFTFSSYPMYWVRQAPGIGLEYVSGITDNGGSTYYGDSVKGRFTISRDNSKNTLNLQMNNLRTEDTAVYYCVKGKIQLWLGADYWGQGTLVTVSS
VL: DIQMTQSPSSLSASVGDRVTITCRANQTISSYLNWYQQKPGKAPKVLIFAASSLEGGVPSRFSGSGSGTDFTLTISSLQPEDFATYSCQQSYNTPWTFGQGTKVEIK
On to B16, for which, in the assay with SARS-CoV-2 RBD, the Kd was found to be 1.92 nM.
